pKd: −log10 of the molar value.

The values below come from publication PMC11733253.

The target in the experiment is MRAS wild type, recombinant from E. coli (human) (UniProt O14807). The experiment in a line: ITC.

Take “BRAF-RBD (from UniProt P15056 150-233) (domain or fragment)”: the pKd was 5.08.
